Experiment [1] addresses T1, SARS-CoV-2 receptor binding domain (RBD) antigen (SARS-CoV-2, UniProt P0DTC2 319-527).
The target of experiment [2] is T1, SARS-CoV-2 receptor binding domain …. Nature of the experiment: yeast surface display, titration of biotinylated RBD, flow cytometry. For orientation: In flow cytometry, cells or beads pass a laser one at a time.

B1: Reference (VH of Reference fused to a c-Myc epitope tag, displayed on yeast) (VHH)
VHH: QVQLQESGGGLVQAGGSLRLSCAASGRTFSEYAMGWFRQAPGKEREFVATISWSGGSTYYTDSVKGRFTISRDNAKNTVYLQMNSLKPDDTAVYYCAAAGLGTVVSEWDYDYDYWGQGTQVTVSS
Consider B1, for which the “EC50 (read off the curve)” value in experiment [1] is around 6 nM. In experiment [2], this molecule registered a Kd of 6 nM.

B2: AB-1 (VH of AB-1 fused to a c-Myc epitope tag, displayed on yeast) (VHH)
VHH: QVQLQESGGGLVQAGGSLRLSCAASGRTFSEYAMGWFRQAPGKEREFVATISWSGGSTYYTDSVKGRFTISRDNAKNTVYLQMNSLKPDDTAVYYCAAAGLGVVLSEWDYDYDYWGQGTQVTVSS
Turning to B2, the concentration for a half-maximal effect (EC50 (read off the curve)) in experiment [1] is around 5 nM. In experiment [2], this molecule had a Kd of 9.3 nM.

B3: AB-2 (VH of AB-2 fused to a c-Myc epitope tag, displayed on yeast) (VHH)
VHH: QVQLQESGGGLVQAGGSLRLSCAASGRTFSEYAMGWFRQAPGKEREFVATISYSGGSTYYTDSVKGRFTISRDNAKNTVYLQMNSLKPDDTAVYYCAAAGLGVHVSEWDYDYDYWGQGTQVTVSS
Consider B3, for which the “EC50 (read off the curve)” value in experiment [1] was around 6 nM. This molecule showed a Kd in experiment [2] of 6.6 nM.

The term EC50 (read off the curve) denotes the concentration needed to bring the measured effect to its halfway point. Read a low EC50 (read off the curve) as higher potency in that assay. As a reminder, the Kd is the free concentration of one partner at which half of the binding sites on the other are occupied at equilibrium, for simple one-to-one binding. A high value points to lower affinity.

Values taken from patent US20230287089A1 (FLAGSHIP PIONEERING INNOVATIONS VI, published 2023).
